Measured values as given in publication PMC6856053 (Frontiers in Neuroscience, 2019).

What was measured:
Assay in all cases: pull-down; GST-MIT domain (bait) and myc-6His MIM (prey), 2 nmole each, on 20 ul glutathione sepharose in 1 ml PBS + 0.1% NP-40 + 1 mM DTT, overnight 4 C; Coomassie and anti-myc blot
Settings in all cases: both partners purified
[1] = biological target: T1, GST fused to the spastin MIT domain (residues 110-199) R115C (human, UniProt Q9UBP0 110-199, R115C)
T1 construct: spastin, residues 110-199 holding the MIT domain; patient mutation (SPAST c.343C>T); Cloned into the BamHI-XhoI sites of pGEX-4T2; source: E. coli BL21(DE3)pLysS, purified (GST sepharose, eluted with 10 mM glutathione)
T1 sequence (looked up): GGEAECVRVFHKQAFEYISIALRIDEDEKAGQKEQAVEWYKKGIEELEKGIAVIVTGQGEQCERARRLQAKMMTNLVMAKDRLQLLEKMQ

[2] = biological target: T2, GST fused to the spastin MIT domain (residues 110-199) E112K (human, UniProt Q9UBP0 110-199, E112K)
T2 construct: spastin, residues 110-199 holding the MIT domain; patient mutation; Cloned into the BamHI-XhoI sites of pGEX-4T2; source: E. coli BL21(DE3)pLysS, purified (GST sepharose, eluted with 10 mM glutathione)
T2 sequence (looked up): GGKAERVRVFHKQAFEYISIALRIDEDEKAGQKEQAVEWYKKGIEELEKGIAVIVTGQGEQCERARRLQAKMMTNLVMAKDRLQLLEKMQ

[3] = biological target: T3, GST fused to the spastin MIT domain (residues 110-199) N184T (human, UniProt Q9UBP0 110-199, N184T)
T3 construct: spastin, residues 110-199 holding the MIT domain; patient mutation; Cloned into the BamHI-XhoI sites of pGEX-4T2; source: E. coli BL21(DE3)pLysS, purified (GST sepharose, eluted with 10 mM glutathione)
T3 sequence (looked up): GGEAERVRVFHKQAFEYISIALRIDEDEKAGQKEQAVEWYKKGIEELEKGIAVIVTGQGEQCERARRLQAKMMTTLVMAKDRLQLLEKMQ

[4] = biological target: T4, GST fused to the wild-type spastin MIT domain (residues 110-199) (human, UniProt Q9UBP0 110-199)
T4 construct: spastin, residues 110-199 holding the MIT domain; Cloned into the BamHI-XhoI sites of pGEX-4T2; also called WT; source: E. coli BL21(DE3)pLysS, purified (GST sepharose, eluted with 10 mM glutathione)
T4 sequence (looked up): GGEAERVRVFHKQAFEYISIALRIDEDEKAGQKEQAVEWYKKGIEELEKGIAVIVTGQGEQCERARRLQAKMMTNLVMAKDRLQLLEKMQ

[5] = biological target: T5, GST fused to the spastin MIT domain (residues 110-199) L195V (human, UniProt Q9UBP0 110-199, L195V)
T5 construct: spastin, residues 110-199 holding the MIT domain; patient mutation; Cloned into the BamHI-XhoI sites of pGEX-4T2; source: E. coli BL21(DE3)pLysS, purified (GST sepharose, eluted with 10 mM glutathione)
T5 sequence (looked up): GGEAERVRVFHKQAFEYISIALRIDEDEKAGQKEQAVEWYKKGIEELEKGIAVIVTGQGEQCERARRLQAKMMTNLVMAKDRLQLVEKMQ

[6] = biological target: T6, GST fused to the spastin MIT domain (residues 110-199) V162I (human, UniProt Q9UBP0 110-199, V162I)
T6 construct: spastin, residues 110-199 holding the MIT domain; benign polymorphism; Cloned into the BamHI-XhoI sites of pGEX-4T2; also called MIT containing the benign polymorphism V162I; source: E. coli BL21(DE3)pLysS, purified (GST sepharose, eluted with 10 mM glutathione)
T6 sequence (looked up): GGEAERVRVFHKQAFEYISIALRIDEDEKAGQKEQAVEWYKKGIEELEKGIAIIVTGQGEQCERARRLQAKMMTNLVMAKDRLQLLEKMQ

binding result [1]: binds | binding result [2]: binds | binding result [3]: binds | binding result [4]: binds | binding result [5]: binds | binding result [6]: binds
B1: single MIM of CHMP1B, residues 174-199, myc- and 6His-tagged (domain or fragment, UniProt Q7LBR1 174-199, looked up)
chain: GSVGTSVASAEQDELSQRLARLRDQV
notes: CHMP1B, residues 174-199 holding the single MIM; Cloned into the BamHI-NotI sites of pGEX-6P-1; also called CHMP1B MIM; CHMP1B (amino acids 174-199); source: E. coli BL21(DE3)pLysS, purified (GST sepharose, GST removed with Prescission protease)
